The text below walks through data of the DeepSol protein solubility set.

A short description of the data set: soluble on expression in E. coli; label from the status in PepcDB or PDB records.
Take “AHHHHHHGSLVITPRRLHLGIIDPTGSLGRRFGSLGVALEGGYEIRITPADSLKIEAEKEDKETIKETIEKLNFEYDTGFGFYIEVRKSIPRHIGLGSTTQLTLGIAMGILKLLHKDVPVEEVAKILGRGKNSGVGIYAFKYGGFVVDGGVKDSVPPLLVRKDFPEDWAFLLVIPQVKRGFDEKEEQKIMEKPFGSASIAKEISYRILLGLLPALAEKNIEEFGRYLSTIQTLVGSSFSDFQGGEFREDIRLIVEFLNEITYGAGQSSWGPTVYGLIKRAEYQRVASRVAEFLDEQGIKAKIELGIPRNRGAEVKGESLFLERLIKSVSQ”: the “soluble on expression in E. coli” value is on record as “soluble”.

On to “MRKMMRQSLQAVLPEISGNKTSLLRKSVCSDLLTLFNSPHSALPSLLVSGMPEWQVHNPSDKHLQSWYCRQLRSALLFHEPRIAALQVNLKEAYCHTLAISLEIMLYHDDEPLTFDLVWDNGGWRSATLENVS”, for which the “soluble on expression in E. coli” value is reported as “not soluble”.

As to “RERVKKEIKDLEKAKDFTEELIEKVKKYKALAREAALSKIGELASEIFAEFTEGKYSEVVVRAEENKVRLFVVWEGKERPLTFLSGGERIALGLAFRLAMSLYLAGEISLLILDEPTPYLDEERRRKLITIMERYLKKIPQVILVSHDEELKDAADHVIRISLENGSSKVEVVS”, the “soluble on expression in E. coli” value is given as “soluble”.

“MENKMESIEQQVEVLLEQEPQLLPAAMAERLGVTEFDVVAALPQEMVAISPGEQAQTILESLVGFGPVTTIVHSFGSIFEVKAPFPKGKVARGYYNLMGREGELHGHLKLDNVKNIALVSKPFMGRESHYFGFFSECGSNIFKVYLGRDEKRELIAEQVTAFRAMQAELNQLEHHHHHH”: the “soluble on expression in E. coli” value is recorded as “not soluble”.

Consider “MTAFQSLKPSTLSREDFVKAFADIYEHSPWVAEKAYELGLDASVDQIETLHQRMSDILLSADHASQLALINAHPDLAGKAAVQGQLTEASTNEQAGAGIHQCTAEEFQRFTELNDAYKAKFKFPFIMAVKGSNRHQILAAFETRIHNSVDTEFKCALAEINKIALFRLLTLLEHHHHHH”, for which the “soluble on expression in E. coli” value was “not soluble”.

For “GSHMKNSVSVDLPGEMKVLVSKEKNKDGKYDLIATVDKLELKGTSDKNNGSGVLEGVKADKSKVKLTISDDLGQTTLEVFKEDGKTLVSKKVTSKDKSSTEEKFNEKGELSEKKITRADKSSTEEKFNEKGELSEKKITRADKSSTEEKFNEKGELSEKKITRADKSSTEEKFNEKGELSEKKITRADKSSTEEKFNEKGELSEKKITRADKSSTEEKFNEKGEVSEKIITRADGTRLEYTGIKSDGSGKAKEVLKGYVLEGTLTAEKTTLVVKEGTVTLSKNISKSGEVSVELNDTDSSAATKKTAAWNSGTSTLTITVNSKKTKDLVFTKENTITVQQYDSNGTKLEGSAVEITKLDEIKNALK”, the “soluble on expression in E. coli” value is listed as “soluble”.

For “IGKVNYNIGFNLSDNRAKVISYPNASKALWDSNGNTLYYNGMTIGEIWGYETEGIAKTDAQMTEWLASNDQSKIGSVWGAGDIMYRDLNGDGIVDKGNSTATDHGDLKKIGNSTPRLRFGLSLGADWKGFDIQMFFQGVMKRDLWLSGPMFWGADGGEWQSVGFDEHLDYFRPENTTSIFGANLNSYYPKAYLGDKGNKNKQTQTRYLQNGAYMRMKNLQIGYTFPKAWMNKAKIEKLRIYVSGENLFTISGIADMFDPEATAGNGFSNGKTYPLSKTISFGLNITL”, the “soluble on expression in E. coli” value was “not soluble”.

With “MGSDKIHHHHHHMKLTILTDNRAAPGLTCEHGFAVLIETGGKRILFDTGQLTAIDANCRALGIDLSDIDIIVLSHGHYDHTGNLADVLRIADRATLYLHPSALIERYSIRNDKPKPIDMPETAKQAINGLPKERVVWVTEPTRLTDGAFLTGPVPRQTTFEDTGGPFFFDPDGKTPDPIEDDLSLWIEKPEGLIVLAGCCHAGIVNTLDYIESITGQKRIATLIGGMHLSAASPERLNRTVASLANRDISRLIACHCTGQAAVERFSKELPYPVEAGYAGMVVESANE”, the “soluble on expression in E. coli” value is reported as “not soluble”.

With “LHIDTEWRSDFKWDRLAEHISDLSGKYVLDIGCGSGYHLWRMRGAGAKFVVGIDPTQLFLMQFNAIKHFIDDSPVHLLPLGVEQLPELKAFDTVFAMGVLYHRRSPIDFLYQLKAQLVKGGELVLETLIVDG”, the “soluble on expression in E. coli” value is “not soluble”.

Consider “MVAGNSAHEMVSILNQNRTARKLGKLNESPGLGCMALQYVELCEGNCNVNNTLSCEHPEDDFTQVFAPNCGVELPTFGTITGHILGCSSKYAAPEVAFSDILFRDSSALSVLRNRSHTEVGVGMARLHKGTFFWCLLFSDGVKNSSFVLEDNGRGIKQRTGCYSGSAFPCSSNAHMICMRLLNSFLGLLFSSFCLFEKHLKF”, for which the “soluble on expression in E. coli” value is given as “soluble”.

Consider “PREEVARIHASSGTTGKPTVVGYTKNDLKVFAEVVARSLAAAGARPGMMLHNAYGYGLFTGGLGLHGGAEALGMTVVPVSGGMTERQVMLIQDFRPEVISCTPSYAQTLAEEFRKRGVSPEELSLEYAVLGAEPWTEAIRKQVDEGLGVKSTNIYGLSEIIGPGVSNECVEERQGSHI”, for which the “soluble on expression in E. coli” value is “not soluble”.

Turning to “MGHHHHHHSHMSLDINQIALHQLIKRDEQNLELVLRDSLLEPTTTVVEMVAELHRVYSAKNKAYGLFNEESELAQALRLQRQGEEDFLAFSRAATGRLRDELAKYPFADGGIVLFCHYRYLAVEYLLVTVLNNLSSMRVNENLDINPTHYLDINHADIVARIDLTEWETNPQSTRYLTFLKGRVGRKVADFFMDFLGASEGLNAKAQNRGLLQAVDDFTAEAQLDKAERQNVRQQVYSYCNEQLQAGEEIELESLSKELSGVSEVSFSEFTAEKGYELEESFPADRSTLRQLTKYAGSGGGLTINFDAMLLGERIFWDPATDTLTIKGTPPNLRDQLQRRTSGGK”, the “soluble on expression in E. coli” value was “soluble”.

With “MGYHGGTMRVLGRRIYWRWYGEVLLEGGVTLRMTGDVAKWLRPGDRVRLRTEFKKPVLGFDEYALEAVFPLWPPFAKTLEHVRESPFGGKAYRYRLKVREATYEGDYEAIAELEQFHYASEKEVVALWVCTQCQKTLPANARPLCDCGGEARLKEIRGSTPASRFLVLELAERLPFEPRILGYLRLDPPIPRMHRRTPEGVERDIRERIFPRDWFHPTYEGGADWQRALDRVNTAAARIARVVVHPDYRSEGFGALLVRVALEWAKERGAPEARREKHLVYTIAQMARYHPFFEKVGFRYLFDTASGRPVLFYPLTEEAEAHLERFLREDPYAKAHGGRLYKPRFGRVPGLPGPIRLRGVHKAYRSHLDLEGLSREVQEALLAFGVKARVVERAVLRGASLEIPPGSLVVLAGASGAGKTTLLRLLLGEAPDAGEVAVPPGRRVAYIPGEREVDLGEDPILEAVYRRLKDVGAAIEVLNRVGLSDAVLYRARPHELSTGQRERFRLALLLAERPDLLLIDEFAAHLDVPTARRVALGLGKLCREAGVTLVAATHRPEVVAALDPDLLVYVGYGGLTTVPRRGPRT”, the “soluble on expression in E. coli” value was “soluble”.

Consider “SLGGEVSGKGPAVAAREARDPLPDAGASPAPSRCCRRRSSVAFFAVCDGHGGREAAQFAREHFWGFIKKQKGFTSSEPAKVCAAIRKGFLACHLAMWKKLAEWPKTMTGLPSTSGTTASVVIIRGMKMYVAHVGDSGVVLGIQDDTKDDFVRAVEVTQDHKPELPKERERIEGLGGSVMNKSGVNRVVWKRPRLTHNGPVRRSTVIDQIPFLAVARALGDLWSYDFFSGEFVVSPEPDTSVHTLDPQKHKYIILGSDGLWNMIPPQDAISMCQDQEEKKYLMGEHGQSCAKMLVNRALGRWRQRMLRADNTSAIVICISPEVDNQGNFTNEDELYLNLTDGPSYNSQETCVMTPSPCSTPPVKSLEEDPWPRVNSKDHIPALVRSNAFSENFLEVSAEIARENVQGVVIPSKDPEPLEEN”, for which the “soluble on expression in E. coli” value is recorded as “soluble”.

On to “MAHHHHHHMELNKLCSFLLRGNISHCENAPTGENAPKGENAQTGENAPKSENPPKSEHSQALFQDASGGKNNDSILDVIKKIPINPFIDSNEDLNKYKYGVEKKKIQRYTGVQVYEEEDKDHKKNQPVDYPFPVSKSVVFEKNKVNKSEDRININYSNIASDLYPEEGFKTPNRKKHFSSDWEMLLAHNHGLYNFKNTDHNTIVNKDMYALNTENDIRNKLNLYVERINVDNPNDACKYLAIEEYKCLLTHSFHMNPDVSNQKCVKWFNEYMQCKWDEHKLNYGYNYIENRRNKKSKAYIAAPDYQYS”, for which the “soluble on expression in E. coli” value is recorded as “not soluble”.

For the sequence “MRVLVSGGGTGGHIYPALALIREIKKLNPEARFLYIGTENGLESTIVPKAGIPFQSIVISGFKRKISLDNVKTVMRFLKGVQDSKRYIRRFNPDIVIGTGGYVCGPVVYAAAKLGIPTIVHEQNSVPGVTNKFLSRYVDKVAVCFEAAAEHFPQSKVVMTGNPRASEVMDQNGMKGKRSVGLSLPKKSVLIFGGSRGARPINDAFVEAIEQFGNKSYEILYVTGEVHYDKVMEAVKQKGNPNNVIIKPFIHNMPEVLTGVDLVVSRAGATTLAELTALGKPSVLIPSPYVTNNHQEKNARSVVDKGAAKMLLEKDLTAETLIRDIDEILLDAQTLQNMKLAAGQLGIPDAANKLYEVMNKLVKK”, the “soluble on expression in E. coli” value is given as “not soluble”.

“MTKENTKSIADDGPYSGSFYGLAEDNANHGIFSSILKRKKRQQDKLSEDVKKRCGRVESYKSCCDRLHQALMYMLVENAVTSKQLVTGARTEPHYRYAGQYLKTYEIIANQGRDKTKYESLEPAIKALLTLDSEHEKKVRKQLENLKPLTKFIGEDYWEYVRLKKVYAESVDGYDEAVVLQNKGKTEDAETAATNAQTWMNDCRTKLMDFITVSISQQKAKHADCVLKFRDESVSYHKIMADSITTPEPAEGKSVVKTLKQ”: the “soluble on expression in E. coli” value was “not soluble”.

Turning to “MKILAFETSTEACSVALHVDGAVRERFELAPRRHAELALPWAEQLLAEAGISRRQLDAIAVGRGPGAFSGVRLAIGIVQGIALALDLPVLAISTLQVLALRAPAEASHVLACIDARMGEVYAGLFERQGEALLTLGSEVVCAPEAVLLPQSTPQWAGVGTGLAAGEMPLQQRFAGRLSSVDAAALPHAADLLTLALPAALRGEGVAPERVEPAYLRDNVALTLVEQQAARAAKAAAVPR”, the “soluble on expression in E. coli” value was “soluble”.

“MSFAPMLLATINNSIGNKDKHVSLEYLIGLFMDKKTTNLSNTDKYIIGTIQTEALEQEIEWFSQDYHIPMENILHVLSINPYQ”: the “soluble on expression in E. coli” value is on record as “not soluble”.

As for “MSLEAKVDKPRLNQEQAIAIAAVNSQQGFGCFLLEGVTGSGKTEVYLNLITPVLARGEQALVLVPEIGLTPQTINRFRQRFNVPVEVMHSALNDTERLNAWLAARDKVAGIVIGTRSALLTPFAKLGIIIVDEEHDSSYKQQDSLRYHARDVAVMRAHLENIPIVLGSATPALETLHNALSGKYHHLQLTQRAGNALPTRNHALDVKGLYLESGLSAPLIAEMRRHLSAGNQVMLFLNRRGFSPALMCHECGWIAECQRCDAYYTYHQHSNEMRCHHCGSQRPVLHQCKGCGSTQLVTVGVGTEQLEAQLHTLFPEYRSVRIDRDSTRRKGSLESALTAIRKGEYQILIGTQMLAKGHHFPDVTLVALLDVDGSLYSSDFRASERLAQLFIQVAGRAGRASKPGEVVLQTHHPEHSLLQALLHKDYHHFALTALEERKLAQLPPYSFLSLFRAEANHTAQVEDFLRQVRETLRCNPWFDSECMVLGPTPAPLAKRAGKFRWQLLLQTPNRTLMQKILQSARPALQQLPLASKVRWSIDIDPQDLSEGHHHHHH”, the “soluble on expression in E. coli” value is given as “not soluble”.

As for “MGSDKIHHHHHHTHSVETPYGSVTFTVYGTPKPKRPAIFTYHDVGLNYKSCFQPLFRFGDMQEIIQNFVRVHVDAPGMEEGAPVFPLGYQYPSLDQLADMIPCILQYLNFSTIIGVGVGAGAYILSRYALNHPDTVEGLVLINIDPNAKGWMDWAAHKLTGLTSSIPDMILGHLFSQEELSGNSELIQKYRGIIQHAPNLENIELYWNSYNNRRDLNFERGGETTLKCPVMLVVGDQAPHEDAVVECNSKLDPTQTSFLKMADSGGQPQLTQPGKLTEAFKYFLQG”, the “soluble on expression in E. coli” value is listed as “soluble”.
